Measured values reported in patent US20240309103A1 (Regeneron, published 2024).

T1: mfNPR1-mFc (monkey)
T1 construct: also called dimeric monkey NPR1
T1 chain: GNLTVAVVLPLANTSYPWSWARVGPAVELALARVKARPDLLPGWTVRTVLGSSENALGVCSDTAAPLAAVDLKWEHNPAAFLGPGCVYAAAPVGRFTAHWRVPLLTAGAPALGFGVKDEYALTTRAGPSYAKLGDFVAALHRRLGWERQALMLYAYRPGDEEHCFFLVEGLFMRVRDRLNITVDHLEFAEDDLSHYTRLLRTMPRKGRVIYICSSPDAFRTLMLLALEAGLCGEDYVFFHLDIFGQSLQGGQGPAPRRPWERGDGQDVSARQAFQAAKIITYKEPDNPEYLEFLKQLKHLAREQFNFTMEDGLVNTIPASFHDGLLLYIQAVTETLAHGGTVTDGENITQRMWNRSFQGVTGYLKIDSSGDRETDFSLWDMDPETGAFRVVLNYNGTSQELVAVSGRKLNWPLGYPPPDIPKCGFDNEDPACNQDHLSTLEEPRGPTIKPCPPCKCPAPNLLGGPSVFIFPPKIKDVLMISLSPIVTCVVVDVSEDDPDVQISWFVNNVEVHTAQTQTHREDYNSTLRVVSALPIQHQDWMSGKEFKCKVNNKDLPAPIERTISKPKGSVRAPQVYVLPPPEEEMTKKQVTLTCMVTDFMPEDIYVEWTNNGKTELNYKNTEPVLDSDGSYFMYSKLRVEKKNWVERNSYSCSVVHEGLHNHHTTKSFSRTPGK

B1: mAb22810 (antibody, human IgG4, V domains shown)
VH: EVQLVESGGGLVKPGGSLRLSCVVSGFTFRIYTMNWVRQAPGKGLEWVASISSSSSFINYADSLKGRFTISRDNAQNSLYLQMNSLRAEDTAIYYCARAAGNDVLPGRMDVWGQGTSVTVSS
VL: EIVLTQSPGTLSLSPGERATLSCRASQSVSSNYLAWYQQKPGQVPSLLIYGASSRATGIPDRFSGSGSGTDFTLTITRLEPEDFAVYYCQQYGISPWTFGQGTKVEIK
B2: mAb25502 (antibody, human IgG4, V domains shown)
VH: QLQLQESGPGLVKPSETLSLTCTVSGGSISSSSYYWGWIRQPPGKGLEWIGSIYYSGSPYYIPSLKSRVTISVDTSKNQFSLKLSSVTAADTAMYYCARQGRGIARAGPFDYWGQGTLVTVSS
VL: DIQMTQSPSSLSASVGDRVTITCRASQGISNYLAWYQEKPGKVPKLLIYAASTLQSGVPSRFSGSGSGTDFTLTITSLQSEDVATYYCQKYNSAPPWTFGQGTKVEIK
B3: mAb22805 (antibody, human IgG4, V domains shown)
VH: QVQLVESGGGVVQPGRSLRLSCAASGFTFSTYGMHWVRQAPGKGLEWVALIWNDGSNKYYADSVKGRFTISRDNSKNTLDLQMNSLRAEDTAVYYCARLNTRITGTTNLDYWGQGTLVTVSS
VL: DIQMTQSPSSLSASVGDRVTVSCRASQSIANYLNWYQQKPGKAPNLLIYGAYTLQSGVPSRFRGSGSGTDFTLTISSLQPEDFATYYCQQTYSTPPITFGQGTRLEIK
B4: mAb25545 (antibody, human IgG4, V domains shown)
VH: QVQLVESGGGLVKPGGSLRLSCAASGFTFSDYHLSWIRQAPGKGLEWVSYIRSSGRTIDYAASVKGRFTISRDNAKNSLYLQMNSLRVEDTAVYYCARENWIVLKVYAGIVGAPLDQWGQGTLVTVSS
VL: not shown

Assays:
[1] = target: T2, hNPR1-mFc:hANP or hNPR1-hFc:hANP complex (human, UniProt P01160 124-151); assay: SPR, mAb captured, 25C
T2 construct: also called human NPR1 complexed to ANP
Method: (§1) Equilibrium dissociation constant (KD) for different NPR1 reagents binding to purified anti-NPR1 monoclonal antibodies (mAbs) were determined using a real-time surface plasmon resonance based Biacore 4000 biosensor. All binding studies were performed in 10 mM HEPES, 150 mM NaCl, 3 mM EDTA, and 0.05% v/v Surfactant Tween-20, pH 7.4 (HBS-ET) running buffer at 25° C. and 37° C. The Biacore CM5 sensor chip surface was first derivatized by amine coupling with either mouse anti-human Fc specific mAb (GE Healthcare, #BR100839) or goat anti-human Fcy specific polyclonal antibody (Jackson ImmunoResearch Laboratories, #BR-1008-39) to capture anti-NPR1 mAbs.

[2] = target: T2, hNPR1-mFc:hANP or hNPR1-hFc:hANP complex; assay: SPR, mAb captured, 37C
Method: as §1

hNPR1-mFc:hBNP complex [3] = target: T3, hNPR1-mFc:hBNP complex (human, UniProt P16860 103-134); assay: SPR, mAb captured, 25C
T3 construct: also called human NPR1 complexed to BNP
Method: as §1

mfNPR1-mFc [4] = target: T1, mfNPR1-mFc; assay: SPR, mAb captured, 25C
Method: as §1

mfNPR1-mFc:hANP complex [5] = target: T4, mfNPR1-mFc:hANP complex (monkey; human, UniProt P01160 124-151); assay: SPR, mAb captured, 25C
T4 construct: also called monkey NPR1 complexed to ANP
Method: as §1

mfNPR1-mFc:hBNP complex = target: T5, mfNPR1-mFc:hBNP complex (monkey; human, UniProt P16860 103-134); assay: SPR, mAb captured, 25C
T5 construct: also called monkey NPR1 complexed to BNP
Method: as §1

hNPR1-mFc:hBNP complex [6] = target: T3, hNPR1-mFc:hBNP complex; assay: SPR, mAb captured, 37C
Method: as §1

mfNPR1-mFc:hANP complex [7] = target: T4, mfNPR1-mFc:hANP complex; assay: SPR, mAb captured, 37C
Method: as §1

mfNPR1-mFc [8] = target: T1, mfNPR1-mFc; assay: SPR, mAb captured, 37C
Method: as §1

Binder	100 nM Ag Bound (RU) [1] [RU]	Kd [1] [nM]	koff [1] [s⁻¹]	kon [1] [M⁻¹ s⁻¹]	t½ [1] [min]	100 nM Ag Bound (RU) [2] [RU]	Kd [2] [nM]	koff [2] [s⁻¹]	kon [2] [M⁻¹ s⁻¹]	t½ [2] [min]	100 nM Ag Bound (RU) (hNPR1-mFc:hBNP complex [3])	Kd (hNPR1-mFc:hBNP complex [3]) [nM]	koff (hNPR1-mFc:hBNP complex [3]) [s⁻¹]	kon (hNPR1-mFc:hBNP complex [3]) [M⁻¹ s⁻¹]	t½ (hNPR1-mFc:hBNP complex [3]) [min]	100 nM Ag Bound (RU) (mfNPR1-mFc:hANP complex [5])	Kd (mfNPR1-mFc:hANP complex [5]) [nM]	koff (mfNPR1-mFc:hANP complex [5]) [s⁻¹]	kon (mfNPR1-mFc:hANP complex [5]) [M⁻¹ s⁻¹]	t½ (mfNPR1-mFc:hANP complex [5]) [min]	other results
B1	14	41.4	0.000344	8310	34	26	75.5	0.00104	13700	11											
B2	81	4.17	0.000253	60600	45.7	105	6.49	0.000467	72000	24.7	78	3.4	0.000236	69400	49	113	3.56	0.000264	74000	43.8	100 nM Ag Bound (RU) (mfNPR1-mFc [4]): 22 RU; Kd (mfNPR1-mFc [4]): 1.6 nM; koff (mfNPR1-mFc [4]): 0.000141 s⁻¹; kon (mfNPR1-mFc [4]): 88300 M⁻¹ s⁻¹; t½ (mfNPR1-mFc [4]): 82 min; 100 nM Ag Bound (RU) (mfNPR1-mFc:hBNP complex): 110 RU; Kd (mfNPR1-mFc:hBNP complex): 4.08 nM; koff (mfNPR1-mFc:hBNP complex): 0.000282 s⁻¹; kon (mfNPR1-mFc:hBNP complex): 69000 M⁻¹ s⁻¹; t½ (mfNPR1-mFc:hBNP complex): 41 min; 100 nM Ag Bound (RU) (hNPR1-mFc:hBNP complex [6]): 102 RU; Kd (hNPR1-mFc:hBNP complex [6]): 7.82 nM; koff (hNPR1-mFc:hBNP complex [6]): 0.000472 s⁻¹; kon (hNPR1-mFc:hBNP complex [6]): 60300 M⁻¹ s⁻¹; t½ (hNPR1-mFc:hBNP complex [6]): 24.5 min; 100 nM Ag Bound (RU) (mfNPR1-mFc:hANP complex [7]): 143 RU; Kd (mfNPR1-mFc:hANP complex [7]): 5.76 nM; koff (mfNPR1-mFc:hANP complex [7]): 0.000524 s⁻¹; kon (mfNPR1-mFc:hANP complex [7]): 91000 M⁻¹ s⁻¹; t½ (mfNPR1-mFc:hANP complex [7]): 22 min
B3	84	3.28	0.000141	43100	81.7	113	4.91	0.000295	60100	39.2	84	3.68	0.000152	41400	75.8	116	1.96	9.51e-05	48400	121	100 nM Ag Bound (RU) (mfNPR1-mFc:hBNP complex): 113 RU; Kd (mfNPR1-mFc:hBNP complex): 2.12 nM; koff (mfNPR1-mFc:hBNP complex): 9.6e-05 s⁻¹; kon (mfNPR1-mFc:hBNP complex): 45300 M⁻¹ s⁻¹; t½ (mfNPR1-mFc:hBNP complex): 120 min; 100 nM Ag Bound (RU) (hNPR1-mFc:hBNP complex [6]): 112 RU; Kd (hNPR1-mFc:hBNP complex [6]): 6.02 nM; koff (hNPR1-mFc:hBNP complex [6]): 0.000313 s⁻¹; kon (hNPR1-mFc:hBNP complex [6]): 52000 M⁻¹ s⁻¹; t½ (hNPR1-mFc:hBNP complex [6]): 36.9 min; 100 nM Ag Bound (RU) (mfNPR1-mFc:hANP complex [7]): 153 RU; Kd (mfNPR1-mFc:hANP complex [7]): 3.3 nM; koff (mfNPR1-mFc:hANP complex [7]): 0.000209 s⁻¹; kon (mfNPR1-mFc:hANP complex [7]): 63300 M⁻¹ s⁻¹; t½ (mfNPR1-mFc:hANP complex [7]): 55.3 min
B4	28	1.98	4.63e-05	23400	250	58	2.35	8.61e-05	36700	134	27	2.72	6.26e-05	23000	185	45	2.35	5.37e-05	22800	215	100 nM Ag Bound (RU) (mfNPR1-mFc:hBNP complex): 42 RU; Kd (mfNPR1-mFc:hBNP complex): 2.08 nM; koff (mfNPR1-mFc:hBNP complex): 4.97e-05 s⁻¹; kon (mfNPR1-mFc:hBNP complex): 23900 M⁻¹ s⁻¹; t½ (mfNPR1-mFc:hBNP complex): 232 min; 100 nM Ag Bound (RU) (hNPR1-mFc:hBNP complex [6]): 56 RU; Kd (hNPR1-mFc:hBNP complex [6]): 2.85 nM; koff (hNPR1-mFc:hBNP complex [6]): 9.84e-05 s⁻¹; kon (hNPR1-mFc:hBNP complex [6]): 34600 M⁻¹ s⁻¹; t½ (hNPR1-mFc:hBNP complex [6]): 117 min; 100 nM Ag Bound (RU) (mfNPR1-mFc [8]): 26 RU; Kd (mfNPR1-mFc [8]): 2.62 nM; koff (mfNPR1-mFc [8]): 0.000144 s⁻¹; kon (mfNPR1-mFc [8]): 55100 M⁻¹ s⁻¹; t½ (mfNPR1-mFc [8]): 80 min; 100 nM Ag Bound (RU) (mfNPR1-mFc:hANP complex [7]): 86 RU; Kd (mfNPR1-mFc:hANP complex [7]): 2.04 nM; koff (mfNPR1-mFc:hANP complex [7]): 8.18e-05 s⁻¹; kon (mfNPR1-mFc:hANP complex [7]): 40100 M⁻¹ s⁻¹; t½ (mfNPR1-mFc:hANP complex [7]): 141 min
